From paper PMC3368898

What was measured:
Assay in all cases: […]; 10 mM Tris pH 7.4, 150 mM NaCl, 1 mM EDTA
[1] = biological target: Col–PfC fragment, endogenous proteolytic fragment of rEPclA with only the Col and PfC domains (Escherichia coli O157:H7 strain RIMD 0509952 (Sakai))
[2] = biological target: PfC domain of EPclA (residues 363-426) after removal of thioredoxin by thrombin
[3] = biological target: PfN–PCoil fragment of EPclA (residues 1-250)
[4] = biological target: Trx–PfC, PfC domain of EPclA (residues 363-426) fused to thioredoxin

Work on “Col–PfC fragment, endogenous proteolytic fragment of rEPclA with only the Col and PfC domains (domain or fragment)” yielded a stoichiometry N [1] of 3.
For “PfC domain of EPclA (residues 363-426) after removal of thioredoxin by thrombin (domain or fragment)”, the stoichiometry N [2] was 3.
“PfN–PCoil fragment of EPclA (residues 1-250) (domain or fragment)” was tested, and the stoichiometry N [3] was 3.
“Trx–PfC, PfC domain of EPclA (residues 363-426) fused to thioredoxin (domain or fragment)” showed a stoichiometry N [4] of 3.
